Measured values as given in the nanobody polyreactivity screen of Harvey et al. (2022).

Experiment: yeast display, Sf9 membrane polyspecificity reagent, FACS + sequencing; frameworks hold sequencing errors
Method in brief: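 Galactose-induced (36–48 hours) yeast carrying a synthetic nanobody display library were exposed to 10% biotinylated, detergent-solubilized Sf9 membrane reagent at 4 °C for 1 hour. FACS followed streptavidin microbead enrichment, using low and high (top ~1%) gates for expression (anti-HA) and reagent binding (streptavidin). Colony PCR, MiSeq 2 × 250 sequencing and CDR-length filtering followed. Labels for polyreactivity reflect the gate of origin.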

With “QVQLVESGGGLVQAGGSLRLSCAASGNTFVANDMGWYRQAPGKERELVAVISGSGGDTYYADSVKGRFTISRDNAKNTVYLQMNSLKPEDTAVYYFAADWYGRETDRSDSDYEYWGQGTKVTVSS” the “polyreactivity (PSR sort gate)” value was “low polyreactivity”.

For “QVQLVESGGGLVQAGGSLRLSCAASGRIFQPYAMGWYRQAPGKERELVARITSGGSTYADSVKGRFTISRDNAKNTVYLQMNSLKPEDTAVYYCAVRYPWYYRGYAYDYWGQGTQVTVSS”, the “polyreactivity (PSR sort gate)” value was “high polyreactivity”.

In the case of “QVQLVESGGGLVQAGGSLRLSCAASGYIFGGYAMGWYRQAPGKERELVAAISRSGGSTYYADSVKGRFTISRDNAKNTVYLQMNSLKPEDTAVYYCAVRGYTLRYGYWGQGTQVTVSS”, the “polyreactivity (PSR sort gate)” value is reported as “high polyreactivity”.

For “QVQLVESGGGLVQAGGSLLLSCAASGFIFAGYAMGWYRQAPGKERELVAPISKRGGTTYYADSVKGRFTISRDNAKNTVYLQMNSLKPEDTAVYYCNAKRTYRVVWASSYEYDYWGQGTQVTVSS”, the “polyreactivity (PSR sort gate)” value was “high polyreactivity”.

With “QVQLVDSGGGLVQAGGSLRLICAASGSIFGKNAMGWYRQAPGKERELVAAISKRGGTTYYADSVKGRFTISRDNAKNTFYLLMNSLKPEDTAVYYCAAYYYVHRSSHYLSPYDFWGQVTQVTVSS” the “polyreactivity (PSR sort gate)” value was “high polyreactivity”.

With “QLQLVESGGGLDQAGGSLRLSCAASAFTFGYYSKGWNRQAPGKQTELVASISRSGGSTNYADSVKGRFTISRDNAKKTVYLQMNSLIPEDNAVYYCNNRVNTYRSVSRRYDYWGQGTQVTLSS” the “polyreactivity (PSR sort gate)” value was “high polyreactivity”.

In the case of “QVQLEDSGGGLVQAGGSLRLSCAASGFIFGLNAMGWNRQAPGKERELVAAIRSASSTNYADSVKGRFTISRDNAKNTVYLQMNSLKPEDTAVYYCAAEYVTYQHGFWGYDYWGQGTQVTVSS”, the “polyreactivity (PSR sort gate)” value is reported as “low polyreactivity”.

With “QVQLVETGGGLVQAGGSLRLSCAASGRTFGPYVMGWYRQAPGKERELVAGITSGGSTNYADSVKGRFTISRDNAKNTVYLQMNSLKPEDTAVYYCNADYVIYFGLYEYWGQGTQVTVSS” the “polyreactivity (PSR sort gate)” value was “low polyreactivity”.

With “QVQLVESGGGLVQAGGSLRLSCAASASTIIRNAMGWYRQAPGKERELVAAISTSGGRTHYADSVKGRFTISRDNAKNTVYLQMNSLKPEDTAVYYCDTRGKGHYYYWGQGTQVTVSS” the “polyreactivity (PSR sort gate)” value was “high polyreactivity”.

With “QVQLLESGGGLVQAGGSLRLSCAASGLIFAYAMGWYRQAPGKERELVAVISWSGGSTYYADSVKGRFTISRDNAKNTVYLQKNSLKPEDTAVYYCAADYFGNWQLAGGYLGQGTQVTVSS” the “polyreactivity (PSR sort gate)” value was “low polyreactivity”.

With “QVQLVESGGGLVQAGGSLRLSCAASGSIFSLYAMGCYIQAHGKERELVAAISRGGSTNYADSVKGRFTISRDNAKNTVYLQMNSLKPEDTAVDYCNAGFGVRRKHITFYTWYDYWGQGTQVTVSS” the “polyreactivity (PSR sort gate)” value was “low polyreactivity”.

For “QVQLVESGGGLVQAGGSLRLSCAASGSTFRLYAMGWYRQAPGKEREFVAAISFRGGSTYYADSVKGRFTISRDNAKNTVYLQMNSLKPEDTAVYYCNARVRVRLGRNWSSYYYWGQGTQVTVSS”, the “polyreactivity (PSR sort gate)” value was “high polyreactivity”.

In the case of “QVQLVESGGGLVQAGGSLRLSCAASGFTFYYNAMGWYRQAPGKERELVAAISTRGGNTYYADSVKGRFTISRDNAKNTVYLQMNSLKPEDTAVYYCARKIRREGRYDYWGQGTQVTVSS”, the “polyreactivity (PSR sort gate)” value is reported as “high polyreactivity”.

With “QVQLQESGGGQVQAGGSLRLSCAASGTIFLYAFMGWYRQAPGKERELVAAIDVGTTTNYADSVKGRFTISRDNAKNTGYLQMNSLKPEDTAVYYCAANLGYLEDLGYWGQGTQVTVSS” the “polyreactivity (PSR sort gate)” value was “low polyreactivity”.

With “QVQLVESGGGLVQAGGSLRLSCAASGFIKFYAMGWYRQAPGKERELVASISSGGRTNYADSVKGRFTISRDNAKNTVYLQMNSLKPEDTAVYYCAAIGWRTRSRFEYWGQGTQVTVSS” the “polyreactivity (PSR sort gate)” value was “high polyreactivity”.

With “QGQLVESGGGLLQAGGSLRLISAASGSTFPIYAMGWYRHAPRKERELVAAITWRGGSRKYYADSVKGRYTISRDNAKNTVYLQMNCLKPEDTAVYYCAAEYKWPLYGYWGQGTQVTVSS” the “polyreactivity (PSR sort gate)” value was “low polyreactivity”.

With “QVQLVESGGGLVQAGGSLRLSCAASGSTFYIYAMGWYRQAPGKDRELVARISGSGGSTYYADSVKGRITISRDNAKNTVYLQMNSLKPEDTAVYYCAATKFNSFYWRYGYWGQGTQVTVSS” the “polyreactivity (PSR sort gate)” value was “low polyreactivity”.
